Values quoted from earlier work, collected in PMC2845642.
Where two headings read alike, the source gives them in different places.

Key:
[1] = target: CD28 (Homo sapiens) (UniProt P10747)
[2] = target: CD28 (Homo sapiens) (UniProt P10747); remark: listed apart in the source

Kd [1] [µM]	Kd [2] [µM]	Substance
4		CD80 (from UniProt P33681)
	20	CD86 (from UniProt P42081)
